# Measured values as given in US20260241049A1, “Radiopharmaceutical Compositions Targeting Glypican-3 and Uses Thereof” (RayzeBio, Inc., priority 2023, published 2026).
# Starred links: 1 amine or outer side, 2 acyl side, 3 side chain; linkers in the order of their positions; H or OH if unused. Positions of bridges follow the written chain, without caps; N, C: chain ends. Non-standard residues stand in square brackets, D forms with d. Primed or numbered codes have the meaning given here. MeA4paa = 3-(1-(carboxymethyl)piperidin-4-yl)-2-(methylamino)propanoic acid, CN([C@@H](CC1CCN(CC(=O)[*:3])CC1)C(=O)[*:2])[*:1]; MeHseMe″ = (2S)-4-methoxy-2-(methylamino)butanoic acid (N-methyl-O-methyl-L-homoserine), COCC[C@@H](C(=O)[*:2])N(C)[*:1]; F4aao(4) = 4-(carboxymethoxy)phenylalanine, O=C([C@H](Cc1ccc(OCC(=O)[*:3])cc1)N[*:1])[*:2]; Thr(Me)(3) = TMe, O-methyl-L-threonine, CO[C@H](C)[C@H](N[*:1])C(=O)[*:2]; Hgn = 2,6-diamino-6-oxohexanoic acid, NC(=O)CCC[C@H](N[*:1])C(=O)[*:2]; HseMe = 2-amino-4-methoxybutanoic acid, COCC[C@H](N[*:1])C(=O)[*:2]; Phe(4-(1-Me-pyrazol-4-yl)) = Cn1cc(-c2ccc(C[C@H](N)C(=O)O)cc2)cn1; 3Pal(6-Ph) = N[C@@H](Cc1ccc(-c2ccccc2)nc1)C(=O)O; Phe(4-COOH) = N[C@@H](Cc1ccc(C(=O)O)cc1)C(=O)O; NMe2Nal = CN[C@@H](Cc1ccc2ccccc2c1)C(=O)O; NMeI = CC[C@H](C)[C@H](NC)C(=O)O; NMeQ = CN[C@@H](CCC(N)=O)C(=O)O; NMeL = CN[C@@H](CC(C)C)C(=O)O; MeD = methyl-L-aspartic acid; NMeK = CN[C@@H](CCCCN)C(=O)O; NMeC = CN[C@@H](CS)C(=O)O; NMeA = CN[C@@H](C)C(=O)O
# B1: Macrocyclic peptide of Example 2-14 (SEQ ID No. 17) (peptide)
# peptide: {CH2CO}-[NMeQ][NMeQ]D[NMeQ][F4aao(4)]II[Phe(4-COOH)][NMe2Nal]G[Phe(4-(1-Me-pyrazol-4-yl))][NMeC]-NH2
# modifications: thioether N-12
# SMILES: CC[C@H](C)[C@@H]1NC(=O)[C@H](Cc2ccc(OCC(=O)O)cc2)NC(=O)[C@H](CCC(N)=O)N(C)C(=O)[C@H](CC(=O)O)NC(=O)[C@H](CCC(N)=O)N(C)C(=O)[C@H](CCC(N)=O)N(C)C(=O)CSC[C@@H](C(N)=O)N(C)C(=O)[C@H](Cc2ccc(-c3cnn(C)c3)cc2)NC(=O)CNC(=O)[C@H](Cc2ccc3ccccc3c2)N(C)C(=O)[C@H](Cc2ccc(C(=O)O)cc2)NC(=O)[C@H]([C@@H](C)CC)NC1=O
# B2: Macrocyclic peptide of Example 2-1 (SEQ ID No. 2) (peptide)
# peptide: {CH2CO}-[NMeK](Ac)[NMeI]D[NMeQ][Phe(4-COOH)]II[Phe(4-COOH)][NMe2Nal]G[3Pal(6-Ph)][NMeC]-NH2
# modifications: thioether N-12
# SMILES: CC[C@H](C)[C@@H]1NC(=O)[C@H](Cc2ccc(C(=O)O)cc2)NC(=O)[C@H](CCC(N)=O)N(C)C(=O)[C@H](CC(=O)O)NC(=O)[C@H]([C@@H](C)CC)N(C)C(=O)[C@H](CCCCNC(C)=O)N(C)C(=O)CSC[C@@H](C(N)=O)N(C)C(=O)[C@H](Cc2ccc(-c3ccccc3)nc2)NC(=O)CNC(=O)[C@H](Cc2ccc3ccccc3c2)N(C)C(=O)[C@H](Cc2ccc(C(=O)O)cc2)NC(=O)[C@H]([C@@H](C)CC)NC1=O
# B3: Macrocyclic peptide of Example 2-2 (SEQ ID No. 3) (peptide)
# peptide: {CH2CO}-[NMeK](Ac)[NMeI]D[NMeQ][Phe(4-COOH)]II[Phe(4-COOH)][NMe2Nal]G[Phe(4-(1-Me-pyrazol-4-yl))][NMeC]-NH2
# modifications: thioether N-12
# SMILES: CC[C@H](C)[C@@H]1NC(=O)[C@H](Cc2ccc(C(=O)O)cc2)NC(=O)[C@H](CCC(N)=O)N(C)C(=O)[C@H](CC(=O)O)NC(=O)[C@H]([C@@H](C)CC)N(C)C(=O)[C@H](CCCCNC(C)=O)N(C)C(=O)CSC[C@@H](C(N)=O)N(C)C(=O)[C@H](Cc2ccc(-c3cnn(C)c3)cc2)NC(=O)CNC(=O)[C@H](Cc2ccc3ccccc3c2)N(C)C(=O)[C@H](Cc2ccc(C(=O)O)cc2)NC(=O)[C@H]([C@@H](C)CC)NC1=O
# B4: Macrocyclic peptide of Example 2-5 (SEQ ID No. 8) (peptide)
# peptide: {CH2CO}-[NMeQ][NMeQ]D[NMeQ][Phe(4-COOH)]II[Phe(4-COOH)][NMe2Nal]G[Phe(4-(1-Me-pyrazol-4-yl))][NMeC]-NH2
# modifications: thioether N-12
# SMILES: CC[C@H](C)[C@@H]1NC(=O)[C@H](Cc2ccc(C(=O)O)cc2)NC(=O)[C@H](CCC(N)=O)N(C)C(=O)[C@H](CC(=O)O)NC(=O)[C@H](CCC(N)=O)N(C)C(=O)[C@H](CCC(N)=O)N(C)C(=O)CSC[C@@H](C(N)=O)N(C)C(=O)[C@H](Cc2ccc(-c3cnn(C)c3)cc2)NC(=O)CNC(=O)[C@H](Cc2ccc3ccccc3c2)N(C)C(=O)[C@H](Cc2ccc(C(=O)O)cc2)NC(=O)[C@H]([C@@H](C)CC)NC1=O
# B5: Macrocyclic peptide of Example 2-11 (SEQ ID No. 14) (peptide)
# peptide: {CH2CO}-[NMeQ][NMeQ]K(Ac)[NMeQ][Phe(4-COOH)]II[Phe(4-COOH)][NMe2Nal]G[Phe(4-(1-Me-pyrazol-4-yl))][NMeC]-NH2
# modifications: thioether N-12
# SMILES: CC[C@H](C)[C@@H]1NC(=O)[C@H](Cc2ccc(C(=O)O)cc2)NC(=O)[C@H](CCC(N)=O)N(C)C(=O)[C@H](CCCCNC(C)=O)NC(=O)[C@H](CCC(N)=O)N(C)C(=O)[C@H](CCC(N)=O)N(C)C(=O)CSC[C@@H](C(N)=O)N(C)C(=O)[C@H](Cc2ccc(-c3cnn(C)c3)cc2)NC(=O)CNC(=O)[C@H](Cc2ccc3ccccc3c2)N(C)C(=O)[C@H](Cc2ccc(C(=O)O)cc2)NC(=O)[C@H]([C@@H](C)CC)NC1=O
# B6: Macrocyclic peptide of Example 2-6 (SEQ ID No. 9) (peptide)
# peptide: {CH2CO}-[NMeA][NMeQ]D[NMeQ][Phe(4-COOH)]II[Phe(4-COOH)][NMe2Nal]G[Phe(4-(1-Me-pyrazol-4-yl))][NMeC]-NH2
# modifications: thioether N-12
# SMILES: CC[C@H](C)[C@@H]1NC(=O)[C@H](Cc2ccc(C(=O)O)cc2)NC(=O)[C@H](CCC(N)=O)N(C)C(=O)[C@H](CC(=O)O)NC(=O)[C@H](CCC(N)=O)N(C)C(=O)[C@H](C)N(C)C(=O)CSC[C@@H](C(N)=O)N(C)C(=O)[C@H](Cc2ccc(-c3cnn(C)c3)cc2)NC(=O)CNC(=O)[C@H](Cc2ccc3ccccc3c2)N(C)C(=O)[C@H](Cc2ccc(C(=O)O)cc2)NC(=O)[C@H]([C@@H](C)CC)NC1=O
# B7: Macrocyclic peptide of Example 2-7 (SEQ ID No. 10) (peptide)
# peptide: {CH2CO}-[NMeQ][NMeL]D[NMeQ][Phe(4-COOH)]II[Phe(4-COOH)][NMe2Nal]G[Phe(4-(1-Me-pyrazol-4-yl))][NMeC]-NH2
# modifications: thioether N-12
# SMILES: CC[C@H](C)[C@@H]1NC(=O)[C@H](Cc2ccc(C(=O)O)cc2)NC(=O)[C@H](CCC(N)=O)N(C)C(=O)[C@H](CC(=O)O)NC(=O)[C@H](CC(C)C)N(C)C(=O)[C@H](CCC(N)=O)N(C)C(=O)CSC[C@@H](C(N)=O)N(C)C(=O)[C@H](Cc2ccc(-c3cnn(C)c3)cc2)NC(=O)CNC(=O)[C@H](Cc2ccc3ccccc3c2)N(C)C(=O)[C@H](Cc2ccc(C(=O)O)cc2)NC(=O)[C@H]([C@@H](C)CC)NC1=O
# B8: Macrocyclic peptide of Example 2-8 (SEQ ID No. 11) (peptide)
# peptide: {CH2CO}-[NMeQ][MeHseMe″]D[NMeQ][Phe(4-COOH)]II[Phe(4-COOH)][NMe2Nal]G[Phe(4-(1-Me-pyrazol-4-yl))][NMeC]-NH2
# modifications: thioether N-12
# SMILES: CC[C@H](C)[C@@H]1NC(=O)[C@H](Cc2ccc(C(=O)O)cc2)NC(=O)[C@H](CCC(N)=O)N(C)C(=O)[C@H](CC(=O)O)NC(=O)[C@H](CCOC)N(C)C(=O)[C@H](CCC(N)=O)N(C)C(=O)CSC[C@@H](C(N)=O)N(C)C(=O)[C@H](Cc2ccc(-c3cnn(C)c3)cc2)NC(=O)CNC(=O)[C@H](Cc2ccc3ccccc3c2)N(C)C(=O)[C@H](Cc2ccc(C(=O)O)cc2)NC(=O)[C@H]([C@@H](C)CC)NC1=O
# B9: Macrocyclic peptide of Example 2-10 (SEQ ID No. 13) (peptide)
# peptide: {CH2CO}-[NMeQ][NMeQ][Hgn][NMeQ][Phe(4-COOH)]II[Phe(4-COOH)][NMe2Nal]G[Phe(4-(1-Me-pyrazol-4-yl))][NMeC]-NH2
# modifications: thioether N-12
# SMILES: CC[C@H](C)[C@@H]1NC(=O)[C@H](Cc2ccc(C(=O)O)cc2)NC(=O)[C@H](CCC(N)=O)N(C)C(=O)[C@H](CCCC(N)=O)NC(=O)[C@H](CCC(N)=O)N(C)C(=O)[C@H](CCC(N)=O)N(C)C(=O)CSC[C@@H](C(N)=O)N(C)C(=O)[C@H](Cc2ccc(-c3cnn(C)c3)cc2)NC(=O)CNC(=O)[C@H](Cc2ccc3ccccc3c2)N(C)C(=O)[C@H](Cc2ccc(C(=O)O)cc2)NC(=O)[C@H]([C@@H](C)CC)NC1=O
# B10: Macrocyclic peptide of Example 2-12 (SEQ ID No. 15) (peptide)
# peptide: {CH2CO}-[NMeQ][NMeQ]D[MeA4paa][Phe(4-COOH)]II[Phe(4-COOH)][NMe2Nal]G[Phe(4-(1-Me-pyrazol-4-yl))][NMeC]-NH2
# modifications: thioether N-12
# SMILES: CC[C@H](C)[C@@H]1NC(=O)[C@H](Cc2ccc(C(=O)O)cc2)NC(=O)[C@H](CC2CCN(CC(=O)O)CC2)N(C)C(=O)[C@H](CC(=O)O)NC(=O)[C@H](CCC(N)=O)N(C)C(=O)[C@H](CCC(N)=O)N(C)C(=O)CSC[C@@H](C(N)=O)N(C)C(=O)[C@H](Cc2ccc(-c3cnn(C)c3)cc2)NC(=O)CNC(=O)[C@H](Cc2ccc3ccccc3c2)N(C)C(=O)[C@H](Cc2ccc(C(=O)O)cc2)NC(=O)[C@H]([C@@H](C)CC)NC1=O
# B11: Macrocyclic peptide of Example 2-9 (SEQ ID No. 12) (peptide)
# peptide: {CH2CO}-[NMeQ][HseMe]D[NMeQ][Phe(4-COOH)]II[Phe(4-COOH)][NMe2Nal]G[Phe(4-(1-Me-pyrazol-4-yl))][NMeC]-NH2
# modifications: thioether N-12
# SMILES: CC[C@H](C)[C@@H]1NC(=O)[C@H](Cc2ccc(C(=O)O)cc2)NC(=O)[C@H](CCC(N)=O)N(C)C(=O)[C@H](CC(=O)O)NC(=O)[C@H](CCOC)NC(=O)[C@H](CCC(N)=O)N(C)C(=O)CSC[C@@H](C(N)=O)N(C)C(=O)[C@H](Cc2ccc(-c3cnn(C)c3)cc2)NC(=O)CNC(=O)[C@H](Cc2ccc3ccccc3c2)N(C)C(=O)[C@H](Cc2ccc(C(=O)O)cc2)NC(=O)[C@H]([C@@H](C)CC)NC1=O
# Target: T1, human Glypican3 (R&D systems, catalog number: 2119-GP) (human, UniProt P51654 25-559, limits assumed)
# T1 construct: Bought recombinant protein, amine-coupled to the chip in Method B-1; also called GPC3; hGPC3
# Assay: SPR (Biacore T200), Method B-1: human Glypican3 amine-coupled to CM3 chip, peptide as analyte
# Method: A CM3 sensor chip (Cytiva) was inserted into a Biacore T200 (Cytiva), primed three times with a running buffer: HBS-P+, pH 7.4 (Cytiva), and equilibrated at a flow rate of 30 μL/min. Ligand immobilization was performed at a flow rate of 10 μL/min. 50 μL each of 60 mM EDC solution (Cytiva) and 650 mM NHS solution (Cytiva) were mixed, and then reacted at a flow rate of 10 μL/min for 420 seconds, 150 μL of 0.2 μM human Glypican3 (R&D systems, catalog number: 2119-GP) solution which was prepared by diluting with 10 mM acetic acid solution (pH 5.0), was reacted at a flow rate of 10 μL/min for 420 seconds, and Glypican3 was immobilized on the CM3 sensor chip. After immobilization, 1.0 M ethanolamine aqueous solution (Cytiva) was allowed to react for 420 seconds at a flow rate of 10 μL/min for capping. A peptide lysate prepared to 10 mM in DMSO solution was diluted with running buffer to a final concentration of 10 μM peptide lysate. […] Using the above samples, peptide kinetics for Glypican3 was obtained by SPR measurement. Kinetics evaluation of Glypican3 was performed by SPR measurements at a flow rate of 10 μL/min, setting the association time to 120 seconds and the disassociation time to 600 seconds.
# The obtained data by Method B-1, Method B-2, Method B-3 and Method B-4 were analyzed by follow. Single Cycle Kinetics was used as the kinetics evaluation model, and curve fitting was performed using Biacore T200 Evaluation Software Version 3.0 (Cytiva).
row,Kd,Binder
1,4.8 nM,B1
2,0.5 nM,B2
3,1.5 nM,B3
4,2.6 nM,B4
5,2.5 nM,B5
6,2.7 nM,B6
7,6.8 nM,B7
8,1.3 nM,B8
9,2.2 nM,B9
10,1.8 nM,{CH2CO}-[NMeQ][NMeQ]D[NMeQ][Phe(4-COOH)][Thr(Me)(3)]I[Phe(4-COOH)][NMe2Nal]G[Phe(4-(1-Me-pyrazol-4-yl))][NMeC]-NH2 (thioether N-12) [Macrocyclic peptide of Example 2-15 (SEQ ID No. 18)]
11,2.9 nM,B10
12,7.2 nM,B11
13,2.8 nM,{CH2CO}-[NMeQ][NMeQ]D[MeD][Phe(4-COOH)]II[Phe(4-COOH)][NMe2Nal]G[Phe(4-(1-Me-pyrazol-4-yl))][NMeC]-NH2 (thioether N-12) [Macrocyclic peptide of Example 2-13 (SEQ ID No. 16)]
